Data set [1] has as its target TAMRA-labeled caspase-1^CARD-SUMO with C-terminal sortase motif (His-MBP removed by TEV protease in the assay) (human) (UniProt P29466). Put plainly: fluorescence polarisation. (Polarisation of emitted light reports the rotation of a fluorescent probe.)
Data set [2] deals with T1, His-GFP-caspase-1^CARD (wild type) (human, UniProt P29466 1-91).
T1 sequence (looked up): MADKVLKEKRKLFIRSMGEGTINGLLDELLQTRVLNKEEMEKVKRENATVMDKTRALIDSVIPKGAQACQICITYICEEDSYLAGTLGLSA
Description: fluorescence polarisation.

The data set “SEC” concerns the molecule itself. Description: SEC.

Broadly, the Ki is a measure of affinity in units of concentration, obtained from inhibition or displacement. A lower Ki goes with higher affinity. The molecule “His-tagged human inhibitor of CARD (INCA) (from UniProt Q5XLA6 1-110) (natural protein)” had an inhibition constant Ki in data set [1] of 9.4 nM. In other words, the single-digit nanomolar range.

B1: His-tagged human inhibitor of CARD (INCA) (natural protein, UniProt Q5XLA6 1-110, looked up)
chain: MADKVLKEKRKQFIRSVGEGTINGLLGELLETRVLSQEEIEIVKCENATVMDKARALLDSVIRKGAPACQICITYICEEDSHLAGTLGLSAGPTSGNHLTTQDSQIVLPS
In turn, B1 showed a Ki in data set [2] of 4.3 ± 1.4 nM.

B2: INCA R55E (natural protein, human, UniProt Q5XLA6 1-110, looked up)
chain: MADKVLKEKRKQFIRSVGEGTINGLLGELLETRVLSQEEIEIVKCENATVMDKAEALLDSVIRKGAPACQICITYICEEDSHLAGTLGLSAGPTSGNHLTTQDSQIVLPS
In data set [2], B2 returned an inhibitory constant (Ki) of about 1700 nM.

B3: His-MBP-ICEBERG (natural protein, human)
chain: ADQLLRKKRRIFIHSVGAGTINALLDCLLEDEVISQEDMNKVRDENDTVMDKARVLIDLVTGKGPKSCCKFIKHLCEEDPQLASKMGLH
Turning to B3, in “SEC”, the binding result is on record as “binds”.

The values are drawn from PMC4856535 (Nature structural & molecular biology, 2016).
